Our source for the IC50 values is patent US20140087995A1 (published 2014).

Numbered stars: 1 amine (or outer) side, 2 acyl side, 3 side chain; on linkers, the order of the positions; unused ones are H or OH. Bridge positions count the residues as written; N and C are the ends. Side chains are listed from the residue outwards. Ends that are not written are not given here. * marks the point of attachment. C20 diacid = O=C(O)CCCCCCCCCCCCCCCCCCC(=O)*; γGlu = O=C(O)[C@H](CCC(=O)[*:2])N[*:1]

B1: N^ε1-[(4S)-4-carboxy-4-(19-carboxynonadecanoylamino)butanoyl]-[Ala14,Arg17,Pro21,Pro27,Pro34]-h-amylin (peptide)
peptide: K([γGlu-C20 diacid])CNTATCATQRLAAFLRHSSPNFGAIPSSTNVGPNTY-NH2
modifications: disulfide 2-7; N-terminus assumed
SMILES: CC[C@H](C)[C@H](NC(=O)[C@H](C)NC(=O)CNC(=O)[C@H](Cc1ccccc1)NC(=O)[C@H](CC(N)=O)NC(=O)[C@@H]1CCCN1C(=O)[C@H](CO)NC(=O)[C@H](CO)NC(=O)[C@H](Cc1c[nH]cn1)NC(=O)[C@H](CCCNC(=N)N)NC(=O)[C@H](CC(C)C)NC(=O)[C@H](Cc1ccccc1)NC(=O)[C@H](C)NC(=O)[C@H](C)NC(=O)[C@H](CC(C)C)NC(=O)[C@H](CCCNC(=N)N)NC(=O)[C@H](CCC(N)=O)NC(=O)[C@@H](NC(=O)[C@H](C)NC(=O)[C@@H]1CSSC[C@H](NC(=O)[C@@H](N)CCCCNC(=O)CC[C@H](NC(=O)CCCCCCCCCCCCCCCCCCC(=O)O)C(=O)O)C(=O)N[C@@H](CC(N)=O)C(=O)N[C@@H]([C@@H](C)O)C(=O)N[C@@H](C)C(=O)N[C@@H]([C@@H](C)O)C(=O)N1)[C@@H](C)O)C(=O)N1CCC[C@H]1C(=O)N[C@@H](CO)C(=O)N[C@@H](CO)C(=O)N[C@H](C(=O)N[C@@H](CC(N)=O)C(=O)N[C@H](C(=O)NCC(=O)N1CCC[C@H]1C(=O)N[C@@H](CC(N)=O)C(=O)N[C@H](C(=O)N[C@@H](Cc1ccc(O)cc1)C(N)=O)[C@@H](C)O)C(C)C)[C@@H](C)O
notes: also called 94; compound 94
B2: N^ε1-[(4S)-4-carboxy-4-(19-carboxynonadecanoylamino)butanoyl]-[Arg14,Arg17,Pro21,Pro27,Pro31]-h-amylin (peptide)
peptide: K([γGlu-C20 diacid])CNTATCATQRLARFLRHSSPNFGAIPSSTPVGSNTY-NH2
modifications: disulfide 2-7; N-terminus assumed
SMILES: CC[C@H](C)[C@H](NC(=O)[C@H](C)NC(=O)CNC(=O)[C@H](Cc1ccccc1)NC(=O)[C@H](CC(N)=O)NC(=O)[C@@H]1CCCN1C(=O)[C@H](CO)NC(=O)[C@H](CO)NC(=O)[C@H](Cc1c[nH]cn1)NC(=O)[C@H](CCCNC(=N)N)NC(=O)[C@H](CC(C)C)NC(=O)[C@H](Cc1ccccc1)NC(=O)[C@H](CCCNC(=N)N)NC(=O)[C@H](C)NC(=O)[C@H](CC(C)C)NC(=O)[C@H](CCCNC(=N)N)NC(=O)[C@H](CCC(N)=O)NC(=O)[C@@H](NC(=O)[C@H](C)NC(=O)[C@@H]1CSSC[C@H](NC(=O)[C@@H](N)CCCCNC(=O)CC[C@H](NC(=O)CCCCCCCCCCCCCCCCCCC(=O)O)C(=O)O)C(=O)N[C@@H](CC(N)=O)C(=O)N[C@@H]([C@@H](C)O)C(=O)N[C@@H](C)C(=O)N[C@@H]([C@@H](C)O)C(=O)N1)[C@@H](C)O)C(=O)N1CCC[C@H]1C(=O)N[C@@H](CO)C(=O)N[C@@H](CO)C(=O)N[C@H](C(=O)N1CCC[C@H]1C(=O)N[C@H](C(=O)NCC(=O)N[C@@H](CO)C(=O)N[C@@H](CC(N)=O)C(=O)N[C@H](C(=O)N[C@@H](Cc1ccc(O)cc1)C(N)=O)[C@@H](C)O)C(C)C)[C@@H](C)O
notes: also called 63; compound 63
B3: N^ε1-[(4S)-4-carboxy-4-(19-carboxynonadecanoylamino)butanoyl]-[Arg14,Arg17,Pro21,Pro27]-h-amylin (peptide)
peptide: K([γGlu-C20 diacid])CNTATCATQRLARFLRHSSPNFGAIPSSTNVGSNTY-NH2
modifications: disulfide 2-7; N-terminus assumed
SMILES: CC[C@H](C)[C@H](NC(=O)[C@H](C)NC(=O)CNC(=O)[C@H](Cc1ccccc1)NC(=O)[C@H](CC(N)=O)NC(=O)[C@@H]1CCCN1C(=O)[C@H](CO)NC(=O)[C@H](CO)NC(=O)[C@H](Cc1c[nH]cn1)NC(=O)[C@H](CCCNC(=N)N)NC(=O)[C@H](CC(C)C)NC(=O)[C@H](Cc1ccccc1)NC(=O)[C@H](CCCNC(=N)N)NC(=O)[C@H](C)NC(=O)[C@H](CC(C)C)NC(=O)[C@H](CCCNC(=N)N)NC(=O)[C@H](CCC(N)=O)NC(=O)[C@@H](NC(=O)[C@H](C)NC(=O)[C@@H]1CSSC[C@H](NC(=O)[C@@H](N)CCCCNC(=O)CC[C@H](NC(=O)CCCCCCCCCCCCCCCCCCC(=O)O)C(=O)O)C(=O)N[C@@H](CC(N)=O)C(=O)N[C@@H]([C@@H](C)O)C(=O)N[C@@H](C)C(=O)N[C@@H]([C@@H](C)O)C(=O)N1)[C@@H](C)O)C(=O)N1CCC[C@H]1C(=O)N[C@@H](CO)C(=O)N[C@@H](CO)C(=O)N[C@H](C(=O)N[C@@H](CC(N)=O)C(=O)N[C@H](C(=O)NCC(=O)N[C@@H](CO)C(=O)N[C@@H](CC(N)=O)C(=O)N[C@H](C(=O)N[C@@H](Cc1ccc(O)cc1)C(N)=O)[C@@H](C)O)C(C)C)[C@@H](C)O
notes: also called 83; compound 83
B4: N^ε1-[(4S)-4-carboxy-4-(19-carboxynonadecanoylamino)butanoyl]-[Arg14,Arg17,Pro21,Pro27,Pro34]-h-amylin (peptide)
peptide: K([γGlu-C20 diacid])CNTATCATQRLARFLRHSSPNFGAIPSSTNVGPNTY-NH2
modifications: disulfide 2-7; N-terminus assumed
SMILES: CC[C@H](C)[C@H](NC(=O)[C@H](C)NC(=O)CNC(=O)[C@H](Cc1ccccc1)NC(=O)[C@H](CC(N)=O)NC(=O)[C@@H]1CCCN1C(=O)[C@H](CO)NC(=O)[C@H](CO)NC(=O)[C@H](Cc1c[nH]cn1)NC(=O)[C@H](CCCNC(=N)N)NC(=O)[C@H](CC(C)C)NC(=O)[C@H](Cc1ccccc1)NC(=O)[C@H](CCCNC(=N)N)NC(=O)[C@H](C)NC(=O)[C@H](CC(C)C)NC(=O)[C@H](CCCNC(=N)N)NC(=O)[C@H](CCC(N)=O)NC(=O)[C@@H](NC(=O)[C@H](C)NC(=O)[C@@H]1CSSC[C@H](NC(=O)[C@@H](N)CCCCNC(=O)CC[C@H](NC(=O)CCCCCCCCCCCCCCCCCCC(=O)O)C(=O)O)C(=O)N[C@@H](CC(N)=O)C(=O)N[C@@H]([C@@H](C)O)C(=O)N[C@@H](C)C(=O)N[C@@H]([C@@H](C)O)C(=O)N1)[C@@H](C)O)C(=O)N1CCC[C@H]1C(=O)N[C@@H](CO)C(=O)N[C@@H](CO)C(=O)N[C@H](C(=O)N[C@@H](CC(N)=O)C(=O)N[C@H](C(=O)NCC(=O)N1CCC[C@H]1C(=O)N[C@@H](CC(N)=O)C(=O)N[C@H](C(=O)N[C@@H](Cc1ccc(O)cc1)C(N)=O)[C@@H](C)O)C(C)C)[C@@H](C)O
notes: also called 65; compound 65
B5: N^ε1-[(4S)-4-carboxy-4-(19-carboxynonadecanoylamino)butanoyl]-[Arg17,Pro21,Pro27,Arg34]-h-amylin (peptide)
peptide: K([γGlu-C20 diacid])CNTATCATQRLANFLRHSSPNFGAIPSSTNVGRNTY-NH2
modifications: disulfide 2-7; N-terminus assumed
SMILES: CC[C@H](C)[C@H](NC(=O)[C@H](C)NC(=O)CNC(=O)[C@H](Cc1ccccc1)NC(=O)[C@H](CC(N)=O)NC(=O)[C@@H]1CCCN1C(=O)[C@H](CO)NC(=O)[C@H](CO)NC(=O)[C@H](Cc1c[nH]cn1)NC(=O)[C@H](CCCNC(=N)N)NC(=O)[C@H](CC(C)C)NC(=O)[C@H](Cc1ccccc1)NC(=O)[C@H](CC(N)=O)NC(=O)[C@H](C)NC(=O)[C@H](CC(C)C)NC(=O)[C@H](CCCNC(=N)N)NC(=O)[C@H](CCC(N)=O)NC(=O)[C@@H](NC(=O)[C@H](C)NC(=O)[C@@H]1CSSC[C@H](NC(=O)[C@@H](N)CCCCNC(=O)CC[C@H](NC(=O)CCCCCCCCCCCCCCCCCCC(=O)O)C(=O)O)C(=O)N[C@@H](CC(N)=O)C(=O)N[C@@H]([C@@H](C)O)C(=O)N[C@@H](C)C(=O)N[C@@H]([C@@H](C)O)C(=O)N1)[C@@H](C)O)C(=O)N1CCC[C@H]1C(=O)N[C@@H](CO)C(=O)N[C@@H](CO)C(=O)N[C@H](C(=O)N[C@@H](CC(N)=O)C(=O)N[C@H](C(=O)NCC(=O)N[C@@H](CCCNC(=N)N)C(=O)N[C@@H](CC(N)=O)C(=O)N[C@H](C(=O)N[C@@H](Cc1ccc(O)cc1)C(N)=O)[C@@H](C)O)C(C)C)[C@@H](C)O
notes: also called 79; compound 79
B6: N^ε1-[(4S)-4-carboxy-4-(19-carboxynonadecanoylamino)butanoyl]-[Arg17,Pro21,Pro27,Glu35]-h-amylin (peptide)
peptide: K([γGlu-C20 diacid])CNTATCATQRLANFLRHSSPNFGAIPSSTNVGSETY-NH2
modifications: disulfide 2-7; N-terminus assumed
SMILES: CC[C@H](C)[C@H](NC(=O)[C@H](C)NC(=O)CNC(=O)[C@H](Cc1ccccc1)NC(=O)[C@H](CC(N)=O)NC(=O)[C@@H]1CCCN1C(=O)[C@H](CO)NC(=O)[C@H](CO)NC(=O)[C@H](Cc1c[nH]cn1)NC(=O)[C@H](CCCNC(=N)N)NC(=O)[C@H](CC(C)C)NC(=O)[C@H](Cc1ccccc1)NC(=O)[C@H](CC(N)=O)NC(=O)[C@H](C)NC(=O)[C@H](CC(C)C)NC(=O)[C@H](CCCNC(=N)N)NC(=O)[C@H](CCC(N)=O)NC(=O)[C@@H](NC(=O)[C@H](C)NC(=O)[C@@H]1CSSC[C@H](NC(=O)[C@@H](N)CCCCNC(=O)CC[C@H](NC(=O)CCCCCCCCCCCCCCCCCCC(=O)O)C(=O)O)C(=O)N[C@@H](CC(N)=O)C(=O)N[C@@H]([C@@H](C)O)C(=O)N[C@@H](C)C(=O)N[C@@H]([C@@H](C)O)C(=O)N1)[C@@H](C)O)C(=O)N1CCC[C@H]1C(=O)N[C@@H](CO)C(=O)N[C@@H](CO)C(=O)N[C@H](C(=O)N[C@@H](CC(N)=O)C(=O)N[C@H](C(=O)NCC(=O)N[C@@H](CO)C(=O)N[C@@H](CCC(=O)O)C(=O)N[C@H](C(=O)N[C@@H](Cc1ccc(O)cc1)C(N)=O)[C@@H](C)O)C(C)C)[C@@H](C)O
notes: also called 27; compound 27

For the test, the target named is T1, human amylin receptor (amylin 3(a) receptor: human calcitonin receptor with RAMP-3) (human, UniProt P30988 25-474; O60896 24-148).
T1 construct: whole, on cells; also called hAmylin-R; hAmylinR
T1 sequence (looked up) 1: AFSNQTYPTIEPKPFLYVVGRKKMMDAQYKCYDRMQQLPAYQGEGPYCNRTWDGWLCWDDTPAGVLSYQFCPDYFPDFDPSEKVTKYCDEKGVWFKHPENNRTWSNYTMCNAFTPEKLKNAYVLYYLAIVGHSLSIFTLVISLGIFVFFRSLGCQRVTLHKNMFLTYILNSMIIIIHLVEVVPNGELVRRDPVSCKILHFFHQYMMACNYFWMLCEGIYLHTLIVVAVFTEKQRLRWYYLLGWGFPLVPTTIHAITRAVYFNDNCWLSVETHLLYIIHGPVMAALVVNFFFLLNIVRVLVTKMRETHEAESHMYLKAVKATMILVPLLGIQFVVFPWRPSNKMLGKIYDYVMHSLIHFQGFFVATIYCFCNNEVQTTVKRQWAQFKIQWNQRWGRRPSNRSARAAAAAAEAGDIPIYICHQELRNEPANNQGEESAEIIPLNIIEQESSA
T1 sequence (looked up) 2: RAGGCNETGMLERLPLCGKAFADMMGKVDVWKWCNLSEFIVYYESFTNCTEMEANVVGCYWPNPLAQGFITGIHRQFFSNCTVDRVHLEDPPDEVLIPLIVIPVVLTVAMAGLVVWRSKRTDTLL
The test can be described thus: SPA displacement of 125I-rat amylin, hAmylin 3(a) receptor membranes. Put shortly: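 SPA beads with BHK Amylin 3(a)/CRE-luc cell membranes (35 ng/μL final) in 50 mM Hepes pH 7.4, 1 mM CaCl2, 5 mM MgCl₂, 0.1% OA, 0.02% Tween20.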
A general note: Displacement assays read how much labelled ligand stays bound in the presence of the test substance.
Turning to B1, the IC50 (as a rule, the concentration that gives 50% inhibition) came out at 0.148 nM.
For the molecule B2, the IC50 was 0.825 nM.
In the case of B3, the concentration for half-maximal inhibition (IC50) came out at 0.939 nM.
Then B4, with 0.649 nM.
Then B5, with 0.79 nM.
Turning to B6, the IC50 was determined as 0.837 nM.
